Experimental data reported in patent publication US20260209750, “SYSTEM AND METHOD FOR […] RNA APTAMER” (CRISmers Biotechnologies (Shenzhen) Co., Ltd., published 2026).

How the values were obtained:
[1] = biological target: T1, SARS-CoV-2 spike RBD (wild type), recombinant (SARS-CoV-2, UniProt P0DTC2 P0DTC2:319-541); assay: ELONA
NSP7-8 complex = NSP7-8 complex (SARS-CoV-2, UniProt P0DTD1;P0DTD1 P0DTD1:3860-3942,P0DTD1:3943-4140); assay: ELONA; conditions: label: biotin
[2] = biological target: PD-1 extracellular domain, recombinant (UniProt Q15116 Q15116:25-170); assay: ELONA
Chain of PD-1 extracellular domain, recombinant (Q15116 25-170, one chain of several): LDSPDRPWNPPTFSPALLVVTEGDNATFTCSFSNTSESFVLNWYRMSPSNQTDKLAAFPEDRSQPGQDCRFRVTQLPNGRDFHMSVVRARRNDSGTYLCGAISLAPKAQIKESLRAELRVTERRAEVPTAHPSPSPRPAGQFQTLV

[3] = biological target: T1, SARS-CoV-2 spike RBD (wild type), …; assay: EMSA

Binder | Kd [1] [nM] | binding result (NSP7-8 complex) | binding result [2] | binding result [3]
ACUUGGCCAAUUACCGUAGUUUUUGUAGUCUGCAGGGCCAAGUG (ssRNA) [#5-2-15 full] | 22.6 | no binding | no binding | –
ACUUGGCCAAUUACCGUAGUUUUUGUAGUCUGCAGGGCCAAGUG (ssRNA, 2'-F on pyrimidines, 2'-OMe on purines) [#5-2-15-2'-F-O] | – | – | – | binds
ACUUGGCCACGUCGACUGAAAUCCUCUUCCUGCAGGGCCAAGUG (ssRNA) [#2-1-18 full] | – | no binding | no binding | –
ACUUGGCCACGUCGACUGAAAUCCUCUUCCUGCAGGGCCAAGUG (ssRNA, 2'-F on pyrimidines, 2'-OMe on purines) [#2-1-18-2'-F-O] | – | – | – | binds
